Laboratory results published in patent US20110052582A1 (Hoffmann-La Roche, published 2011).
Residue numbers refer to the chain shown, from its start. One block for each binder: values may come before it.

How the values were obtained:
[1] = target: T1, Human CDCP1 (CUB domain containing protein 1) on DU-145 cells (human, UniProt Q9H5V8 30-836); assay: cell-based or functional assay
T1 sequence: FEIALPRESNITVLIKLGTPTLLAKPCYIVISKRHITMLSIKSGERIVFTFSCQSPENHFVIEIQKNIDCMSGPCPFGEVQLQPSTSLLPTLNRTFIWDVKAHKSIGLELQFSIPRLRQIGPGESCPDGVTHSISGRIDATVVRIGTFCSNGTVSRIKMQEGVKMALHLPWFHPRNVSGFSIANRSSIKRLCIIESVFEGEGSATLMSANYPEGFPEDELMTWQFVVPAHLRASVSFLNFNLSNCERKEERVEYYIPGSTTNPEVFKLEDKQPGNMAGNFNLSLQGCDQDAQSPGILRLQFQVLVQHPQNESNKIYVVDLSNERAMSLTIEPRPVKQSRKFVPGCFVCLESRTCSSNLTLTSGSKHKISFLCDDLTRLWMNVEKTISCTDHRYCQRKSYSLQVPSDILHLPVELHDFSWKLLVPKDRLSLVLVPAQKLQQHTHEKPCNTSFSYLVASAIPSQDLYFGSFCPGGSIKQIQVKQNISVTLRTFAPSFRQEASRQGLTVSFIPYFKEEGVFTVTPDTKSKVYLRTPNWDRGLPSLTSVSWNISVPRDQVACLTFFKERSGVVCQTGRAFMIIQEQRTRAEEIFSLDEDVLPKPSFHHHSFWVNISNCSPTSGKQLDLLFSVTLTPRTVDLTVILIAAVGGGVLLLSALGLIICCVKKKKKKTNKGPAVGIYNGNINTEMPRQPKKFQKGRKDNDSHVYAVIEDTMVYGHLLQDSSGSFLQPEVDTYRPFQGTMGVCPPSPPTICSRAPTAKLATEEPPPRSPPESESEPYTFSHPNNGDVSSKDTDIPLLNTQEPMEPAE

[2] = target: T2, Soluble CDCP1 extracellular domain (CDCP1-ECD) (SEQ ID NO:30) fused to Streptavidin Binding Protein (SBP) (human, UniProt Q9H5V8 30-663); assay: ELISA on captured SBP-CDCP1-ECD, ratio relative to chimeric CUB4 (chHC4)
T2 construct: also called SBP-CDCP1-ECD
T2 sequence: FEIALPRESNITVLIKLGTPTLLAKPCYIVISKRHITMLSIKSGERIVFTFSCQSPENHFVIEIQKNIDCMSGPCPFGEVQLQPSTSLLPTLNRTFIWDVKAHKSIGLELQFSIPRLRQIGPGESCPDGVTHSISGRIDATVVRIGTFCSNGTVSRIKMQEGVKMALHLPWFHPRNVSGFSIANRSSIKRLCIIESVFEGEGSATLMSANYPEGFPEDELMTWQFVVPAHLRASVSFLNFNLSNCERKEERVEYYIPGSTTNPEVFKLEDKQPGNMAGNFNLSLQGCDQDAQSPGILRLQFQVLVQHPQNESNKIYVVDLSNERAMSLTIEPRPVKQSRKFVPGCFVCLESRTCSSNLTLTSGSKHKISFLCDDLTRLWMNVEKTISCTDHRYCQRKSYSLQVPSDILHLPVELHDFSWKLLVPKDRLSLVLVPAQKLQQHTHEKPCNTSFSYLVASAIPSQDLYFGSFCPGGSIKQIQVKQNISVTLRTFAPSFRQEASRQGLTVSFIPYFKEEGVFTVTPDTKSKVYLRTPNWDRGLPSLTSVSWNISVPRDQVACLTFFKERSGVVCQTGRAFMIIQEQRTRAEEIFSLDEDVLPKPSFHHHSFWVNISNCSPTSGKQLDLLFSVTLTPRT
Outline: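 Streptavidin plates coated overnight at 2–8° C with SBP-CDCP1-ECD HEK293 supernatant (1:15–1:40). Antibodies, undiluted or 12-step dilution, bound 90 min at room temperature; HRP anti-human IgG 1 h, ABTS read at 405/492 nm, signal expressed relative to chimeric chHC4 reference.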

[3] = target: T3, extracellular-domain-(ECD)-comprising fragment of human CDCP1 of SEQ ID NO: 30 (human, UniProt Q9H5V8 30-663); assay: SPR (Biacore T100), antibody captured, CDCP1 ECD as analyte, 25 C, Langmuir 1:1
T3 construct: also called CDCP1 ECD; CDCP1-ECD
T3 sequence: T2 sequence
Description: After conjugation, different anti-CDCP1 antibodies were injected at 25° C. at a flow rate of 5 μL/min, followed by a dilution series (0 nM to 1000 nM) of CDCP1 ECD at 30 μL/min. As running buffer for the binding experiment PBS/0.1% BSA was used. The chip was then regenerated with a 60s pulse of 10 mM glycine-HCl, pH 2.0 solution.
Calculation of thermodynamic parameters (KD, binding constant) and kinetic parameters (kₒₙ rate, koff rate) were calculated using a Langmuir 1:1 binding model.

B1: chimeric (chHC4) CUB4 antibody comprising human constant region and mouse VH and VL (antibody, human IgG1, V domains shown)
VH: EVQLVESGGDLVKPGGSLKLSCAASGFTFNSYGMSWVRQTPDKRLEWVATISSGGSYTYYPDSVKGRFTISRDNAKNTLYLQMSSLKSEDTAMYYCARHPDYDGVWFAYWGQGTLVTVSA
VL: QIVLTQSPAIMSASPGEKVTMTCSVSSSVFYVHWYQQKSGTSPKRWIYDTSKLASGVPARFSGSGSGTSYSLTISSMEAEDAATYYCQQWNSNPPTFGGGTKLEIK
- Percent (%) stimulation of CDCP1 phosphorylation in DU-145 cells (Western blot, densitometry) [1]: 100%

B2: Humanized CUB4 Antibody No. 69 (antibody, IgG1, V domains shown)
VH: EVQLVESGGGLVQPGGSLRLSCAASGFTFNSYGMSWVRQAPGKGLEWVATISSGGSYKYYVDSVKGRFTISRDNAKNSLYLQMNSLRAEDTAVYYCARHPDYDGVWFAYWGQGTLVTVSS
VL: EIVLTQSPATLSLSPGERATMSCSVSSSVFYLHWYQQKPGQAPRLWIYDTSKLASGIPARFSGSGSGTDFTLTISSLEPEDFAVYYCQQWNSNPPTFGGGTKVEIK
notes: Human constant region; also called Antibody 69; hHC4-H / hLC-L2
- Percent (%) stimulation of CDCP1 phosphorylation in DU-145 cells (Western blot, densitometry) [1]: 112%
- relative binding ratio [2]: 0.69
- Kd [3]: 2.55 nM
- koff [3]: 0.00052 s⁻¹
- kon [3]: 210000 M⁻¹ s⁻¹
- t½ diss. [3]: 22.1 min

The remaining binders from weak to strong by Kd [3], led by results:

- Percent (%) stimulation of CDCP1 phosphorylation in DU-145 cells (Western blot, densitometry) [1]: 72%
- relative binding ratio [2]: 0.47
- Kd [3]: 8.3 nM
- koff [3]: 0.0011 s⁻¹
- kon [3]: 140000 M⁻¹ s⁻¹
- t½ diss. [3]: 10.3 min
B3: Humanized CUB4 Antibody No. 135 (antibody, IgG1, V domains shown)
VH: B2 VH
VL: DIQMTQSPSSLSASVGDRVTITCSVSSSVFYVHWYQQKPGKAPKLLIYDTSKLASGVPSRFSGSGSGTDFTFTISSLQPEDIATYYCQQWNSNPPTFGGGTKVEIK
notes: Human constant region, preferably IgG1; also called Antibody 135; hHC4-H / hLC-e

- Percent (%) stimulation of CDCP1 phosphorylation in DU-145 cells (Western blot, densitometry) [1]: 96%
- relative binding ratio [2]: 0.46
- Kd [3]: 3.77 nM
- koff [3]: 0.00075 s⁻¹
- kon [3]: 200000 M⁻¹ s⁻¹
- t½ diss. [3]: 15.4 min
B4: Humanized CUB4 Antibody No. 47 (antibody, human IgG1, V domains shown)
VH: B2 VH
VL: B2 VL with M21L, S24R, V25A
notes: Only variable domains are tied to the antibody; also called humanized anti-CDCP1 antibody 47; hHC4-H / hLC-K

- Percent (%) stimulation of CDCP1 phosphorylation in DU-145 cells (Western blot, densitometry) [1]: 133%
- relative binding ratio [2]: 0.56
- Kd [3]: 3.53 nM
- koff [3]: 0.00088 s⁻¹
- kon [3]: 250000 M⁻¹ s⁻¹
- t½ diss. [3]: 13.1 min
B5: Humanized CUB4 Antibody No. 80 (antibody, IgG1, V domains shown)
VH: B2 VH
VL: B2 VL with S24G, V25A, Q41L, A59D, S76R
notes: Only variable domains are tied to the antibody; Human constant region, preferably IgG1; also called hHC4-H / hLC-M
